This note sets out measurements from US20050186203A1.

What all share (conditions): remark: other sources report otherwise
Experiment [1] addresses T1, human IGF-I receptor of human tumor cells (MCF-7, NCI-H838, SaOS-2 and other lines) (human), P08069. Put plainly: displacement of pre-bound biotinylated IGF-I from MCF-7 cells by EM164 (10-100 µg/mL) at 4° C., 2 h; capture ELISA. A general note: An ELISA detects its analyte on a solid surface through an enzyme-linked reagent.
The target of experiment [2] is T1, human IGF-I receptor of human tumor …. Put plainly: displacement of pre-bound biotinylated IGF-I from MCF-7 cells by EM164 (10-100 µg/mL) at 37° C., 30 min; capture ELISA.
The target of experiment [3] is T2, purified full-length human IGF-I receptor (affinity purified; directly coated or biotinylated and captured on streptavidin) (human), P08069. Put plainly: ELISA, hybridoma supernatant on plate-coated purified human IGF-I receptor, anti-mouse IgG Fc-HRP.
In experiment [4] the target is T2, purified full-length human IGF-I …. Put plainly: ELISA titration on biotinylated human IGF-I receptor captured on streptavidin; non-linear regression for one-site binding.
For experiment [5] the target is unchanged. Nature of the experiment: ELISA titration on human IGF-I receptor, similar to that of the whole antibody.

B1: murine anti-IGF-I receptor antibody EM164 (antibody, V domains shown)
VH: QVQLQQSGAELVKPGASVKLSCKASGYTFTSYWMHWVKQRPGQGLEWIGEINPSNGRTNYNEKFKRKATLTVDKSSSTAYMQLSSLTSEDSAVYYFARGRPDYYGSSKWYFDVWGAGTTVTVS
VL: DVLMTQTPLSLPVSLGDQASISCRSSQSIVHSNVNTYLEWYLQKPGQSPKLLIYKVSNRFSGVPDRFSGSGSGTDFTLRISRVEAEDLGIYYCFQGSHVPPTFGGGTKLEIKR
Turning to B1, the % displacement of pre-bound biotinylated IGF-I was determined as 50% in experiment [1] and 90% in experiment [2]. The absorbance units (ELISA, 405 nm) (absorbance units) in experiment [3] was found to be 1.2. Moreover, in experiment [4], the Kd (as a rule, the equilibrium constant for the complex coming apart) worked out at 0.1 nM.

B2: Fab fragment of EM164 antibody (Fab, V domains shown)
VH: B1 VH
VL: B1 VL
modifications: here or on the partner: biotinylated with PEO-maleimide-biotin reagent in the captured format
The molecule B2 gave a Kd in experiment [5] of 0.3 nM.
